Test results: publication PMC7021470 (mSphere, 2020)
Like-named read-outs stand apart in the source and are kept apart here.

Columns and labels:
[1] = target: T1, E. faecalis metalloprotease GelE (bacterial supernatants) (Enterococcus faecalis, UniProt Q833V7); details: 4 h at room temperature; for quantity (%) of substrate remaining after incubation with supernatant, dilution 0.0001x: E. faecalis 30054A supernatant diluted 0.0001x in bacterial culture medium; for quantity (%) of substrate remaining after incubation with supernatant, dilution 0.0001x / quantity (%) of substrate remaining after incubation with supernatant, dilution 0.001x / quantity (%) of substrate remaining after incubation with supernatant, dilution 1x / quantity (%) of substrate remaining after incubation with supernatant, dilution 0.01x / quantity (%) of substrate remaining after incubation with supernatant, dilution 0.1x: recombinant substrate, Luminex (Milliplex) read-out, mean ± SD; for quantity (%) of substrate remaining after incubation with supernatant, dilution 0.0001x / quantity (%) of substrate remaining after incubation with supernatant, dilution 0.001x / degradation of substrate by GelE (in words) / quantity (%) of substrate remaining after incubation with supernatant, dilution 0.01x / quantity (%) of substrate remaining after incubation with supernatant, dilution 0.1x: n = 3; for quantity (%) of substrate remaining after incubation with supernatant, dilution 0.001x: E. faecalis 30054A supernatant diluted 0.001x in bacterial culture medium; for quantity (%) of substrate remaining after incubation with supernatant, dilution 1x: E. faecalis 30054A supernatant, 1x (undiluted), n = 3 independent experiments; for degradation of substrate by GelE (in words): undiluted supernatants of E. faecalis 30054A, 30002, OG1RF, ΔgelE, ΔsprE, S613, Luminex, Fig. 4; for quantity (%) of substrate remaining after incubation with supernatant, dilution 0.01x: E. faecalis 30054A supernatant diluted 0.01x in bacterial culture medium; for quantity (%) of substrate remaining after incubation with supernatant, dilution 0.1x: E. faecalis 30054A supernatant diluted 0.1x in bacterial culture medium
T1 sequence (Q833V7 whole entry, looked up): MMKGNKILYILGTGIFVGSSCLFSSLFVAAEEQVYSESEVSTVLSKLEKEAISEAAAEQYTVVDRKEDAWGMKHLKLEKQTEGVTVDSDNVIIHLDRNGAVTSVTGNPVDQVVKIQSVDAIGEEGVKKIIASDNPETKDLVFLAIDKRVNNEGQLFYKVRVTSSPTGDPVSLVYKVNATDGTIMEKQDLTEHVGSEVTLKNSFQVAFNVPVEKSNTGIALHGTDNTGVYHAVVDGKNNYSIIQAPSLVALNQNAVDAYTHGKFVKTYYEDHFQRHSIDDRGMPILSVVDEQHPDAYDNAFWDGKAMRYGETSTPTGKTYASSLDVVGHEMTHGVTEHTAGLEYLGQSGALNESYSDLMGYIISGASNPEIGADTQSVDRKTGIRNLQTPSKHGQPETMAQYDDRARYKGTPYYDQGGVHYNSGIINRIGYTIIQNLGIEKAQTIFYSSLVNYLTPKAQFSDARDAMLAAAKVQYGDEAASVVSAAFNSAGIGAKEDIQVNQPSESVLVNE
Description: To gain a better understanding of the substrate preference of GelE, we also tested the ability of diluted supernatants of E. faecalis 30054A, from 1 to 0.0001×, to degrade the same panel of metabolic substrates (Table 1).
Bacterial supernatants were collected from an overnight culture by centrifugation as described above, diluted in bacterial culture medium as indicated, and incubated with recombinant protein (GenScript; Sigma, Tocris) of each analyte for 4 h at room temperature, followed by storage at –80°C until ready for analyte quantification. The Milliplex multiplex assay was run according to the protocol provided by the manufacturer.

[2] = target: T2, E. faecalis metalloprotease GelE (bacterial supernatants) (Enterococcus faecalis, UniProt Q833V7); format: in vitro ADME; set-up: The secreted metalloprotease GelE serves E. faecalis by degrading misfolded surface proteins; endogenous in cells; host or cells: Enterococcus faecalis strains OG1RF, 30054A, 30002 (and TX5243 sprE mutant); culture supernatants; details: E. faecalis 30054A and 30002 supernatants; 200 pM GLP-1; 30 min at 100°C after incubation; ELISA; n = 2
Description: If GelE was targeting the ELISA and not GLP-1, one would expect to see high levels of GLP-1 in a sample heat treated after incubation with GLP-1, ensuring no further degradation by GelE during the ELISA.
Supplementary file : FIG S4 GLP-1-inhibitory activity with heat treatment pre- and postincubation. […] Data were obtained from two independent experiments (n = 2) and are expressed as the mean ± SD. Download FIG S4, PDF file, 0.02 MB.

[3] = target: T2, E. faecalis metalloprotease GelE (bacterial supernatants); details: 500 pM recombinant GLP-1; 4 h at room temperature; ELISA; vs GM17 medium control; mean ± SD, n = 4
Text: Two secreted proteases from E. faecalis are well known, the serine protease SprE and the metalloprotease GelE, both of which are regulated by the two-component, quorum-sensing fsr (faecalis system regulator) operon ([9]) (Fig. 2A). We obtained strains of E. faecalis containing null mutations in sprE (TX5243), gelE (TX5264), and fsrB (TX5266), as well as a gelE sprE double mutant (TX5128), all generated in the commonly used wild-type OG1RF E. faecalis strain ([10]).
Supernatants from E. faecalis protease mutants and controls (OG1RF, TX5266 [fsrB mutant], TX5264 [gelE mutant], TX5243 [sprE mutant], and TX5128 [gelE sprE mutant]) were collected from an overnight culture grown in GM17 aerobically at 37°C by centrifugation, as described above.

[4] = target: E. faecalis metalloprotease GelE (apical supernatants) (Enterococcus faecalis, UniProt Q833V7); details: T84 transwell; approximately 500 pM GLP-1 in DMEM-F-12 basolateral; 16 h, 37°C, 5% CO2; ELISA; compared to DMEM-F-12 control; mean ± SD, four independent experiments
Description: Growth cultures and assays of T84 cells were performed by methods described previously, with slight modifications ([26]). T84 human colonic epithelial cells (ATCC CCL-248) were propagated in tissue culture-treated T75 flasks (Cellstar), as indicated by the ATCC. When between 90 and 100% confluence, T84 cells were treated with 0.25% trypsin and plated onto 24-well, 3.0-μm polycarbonate membrane transwell filters (catalog no. 3415; Costar) at a density of 8 × 10^4 cells/well.
To prepare bacteria, on the day of the assay E. faecalis strains were subcultured 1% (vol/vol) from an overnight culture into GM17 and grown for 5 h, as described above. Whole-culture (cells plus supernatant) samples were diluted in DMEM–F-12 (Gibco) to a concentration of 1 × 10^7 CFU/ml, and supernatant samples were diluted 50% in DMEM–F-12. All samples were neutralized to a pH of 6.8 to 7 using 3 M NaOH.
A final TEER measurement was taken for each monolayer.

[5] = system: NCI-H716 cells; assay: GLP-1 secretion screen with bacterial supernatants on NCI-H716 cells (ELISA); format: cell-based, human; details: 2 h incubation at 37°C, total GLP-1 by ELISA, medium control = 100%, PMA at 2 μM, mean ± SD, n = 3
Description: NCI-H716 (American Type Culture Collection [ATCC] CCL-251) cells were grown in RPMI (ATCC) medium supplemented with 10% (vol/vol) heat-inactivated newborn calf serum (NBCS; Gibco). Cultures were maintained at a concentration of 2 × 10^5 to 8 × 10^5 cells/ml and used at passages 15 to 40 for cell studies. For cell studies, 96-well plates were coated with 100 μl of 10 mg/ml Matrigel (BD Biosciences) for 2 h at room temperature. Following coating, NCI-H716 cells were seeded at a concentration of 1 × 10^5 cells/well in Dulbecco’s modified Eagle’s medium (DMEM) supplemented with 10% (vol/vol) NBCS, as determined by trypan blue staining using a hemocytometer. Two days later, lyophilized bacterial supernatants were resuspended in Krebs buffer (Sigma) containing 0.2% (wt/vol) bovine serum albumin (BSA) and 0.03% (wt/vol) bovine bile and incubated on the NCI-H716 cells at 37°C with 5% CO2. […] Cell viability was monitored using the PrestoBlue cell viability reagent (Thermo Fisher Scientific), following the manufacturer’s instructions.

[6] = system: E. faecalis 30054A; assay: Sensitivity of GLP-1-inhibitory activity to TPEN; format: cell-based, Enterococcus faecalis; details: E. faecalis 30054A grown overnight with increasing amounts of TPEN; supernatants incubated with 500 pM GLP-1, 4 h at room temperature; ELISA; n = 3
Text: Supplementary file : FIG S1 Sensitivity of GLP-1-inhibitory activity to TPEN. […] Data were obtained from three (n = 3) independent experiments (replicates 1 to 3) with mean ± SD shown for each replicate (technical variation). Linear regression with R^2 goodness-of-fit value and P value are reported. Download FIG S1, EPS file, 0.1 MB.

| Compound | quantity (%) of substrate remaining after incubation with supernatant, dilution 0.0001x [1] [%] | quantity (%) of substrate remaining after incubation with supernatant, dilution 0.001x [1] [%] | quantity (%) of substrate remaining after incubation with supernatant, dilution 1x [1] [%] | degradation of substrate by GelE (in words) [1] | quantity (%) of substrate remaining after incubation with supernatant, dilution 0.01x [1] [%] | quantity (%) of substrate remaining after incubation with supernatant, dilution 0.1x [1] [%] | further results |
| --- | --- | --- | --- | --- | --- | --- | --- |
| insulin | 99.23 ± 1.33 | 99.97 ± 0.05 | 57.29 ± 7.69 | less striking but still statistically significant | – | – | – |
| CC[C@H](C)[C@H](NC(=O)[C@H](Cc1ccccc1)NC(=O)[C@H](CCC(=O)O)NC(=O)[C@H](CCCCN)NC(=O)[C@H](C)NC(=O)[C@H](C)NC(=O)[C@H](CCC(N)=O)NC(=O)CNC(=O)[C@H](CCC(=O)O)NC(=O)[C@H](CC(C)C)NC(=O)[C@H](Cc1ccc(O)cc1)NC(=O)[C@H](CO)NC(=O)[C@H](CO)NC(=O)[C@@H](NC(=O)[C@H](CC(=O)O)NC(=O)[C@H](CO)NC(=O)[C@@H](NC(=O)[C@H](Cc1ccccc1)NC(=O)[C@@H](NC(=O)CNC(=O)[C@H](CCC(=O)O)NC(=O)[C@H](C)NC(=O)[C@@H](N)Cc1c[nH]cn1)[C@@H](C)O)[C@@H](C)O)C(C)C)C(=O)N[C@@H](C)C(=O)N[C@@H](Cc1c[nH]c2ccccc12)C(=O)N[C@@H](CC(C)C)C(=O)N[C@H](C(=O)N[C@@H](CCCCN)C(=O)NCC(=O)N[C@@H](CCCNC(=N)N)C(N)=O)C(C)C [GLP-1, glucagon-like peptide-1] | – | – | – | – | – | – | GLP-1 levels, supernatants heat treated after incubation with GLP-1 [2]: low GLP-1 levels; GLP-1 level after incubation with OG1RF (wild-type) supernatant [3]: −0.06% ± 0.76%; GLP-1 level after incubation with ΔsprE mutant (TX5243) supernatant [3]: −0.14% ± 0.74%; GLP-1 in the basolateral compartment, apical 30054A supernatant [4]: 3.1% ± 2.68%; GLP-1 in the basolateral compartment, apical OG1RF supernatant [4]: 1.6% ± 0.46% |
| leptin | 97.77 ± 3.87 | 99.78 ± 0.39 | 2.15 ± 0.96 | – | 72.29 ± 1.72 | 7.95 ± 4.72 | quantity (%) of substrate remaining after incubation with supernatant, dilution 0.1x ([1]; listed as leptin): 7.95% ± 4.72% |
| monocyte chemoattractant protein-1 [MCP-1] | 98.33 ± 2.89 | 99.99 ± 0.01 | – | less striking but still statistically significant | 99.92 ± 0.14 | 74.03 ± 44.98 | – |
| CCCCCCCCCCCCCC(=O)O[C@@H]1[C@@H](C)[C@@]2(O)[C@@H](C=C(CO)C[C@]3(O)C(=O)C(C)=C[C@@H]23)[C@@H]2C(C)(C)[C@]12OC(C)=O [PMA, 4-Phorbol 12 myristate 13-acetate] | – | – | – | – | – | – | GLP-1 compared to the medium controls [5]: 200% |
| interleukin 6 [IL-6] | 95.74 ± 6.94 | 95.75 ± 7.36 | 80.28 ± 24.77 | did not observe consistent degradation | 99.91 ± 0.15 | 99.78 ± 0.37 | – |
| tumor necrosis factor alpha [TNFα] | 98.12 ± 1.67 | 99.28 ± 1.25 | – | less striking but still statistically significant | 99.72 ± 0.48 | 87.87 ± 19.41 | – |
| c1ccc(CN(CCN(Cc2ccccn2)Cc2ccccn2)Cc2ccccn2)nc1 [TPEN, N,N,N′,N′-tetrakis(2-pyridylmethyl)ethane-1,2-diamine] | – | – | – | – | – | – | effect on GLP-1 degradation by supernatant [6]: reduction in GLP-1 degradation |
